# Results published in US20140274782A1, “AFFINITY REAGENTS AND METHODS FOR DETECTION, PURIFICATION, AND PROTEOMIC ANALYSIS OF METHYLATED PROTEINS” (The Board of Trustees of the Leland Stanford Junior …, priority 2013, published 2014).
# Legend:
# [1] = target: T1, G9a and GLP (Homo sapiens, UniProt Q96KQ7+Q9H9B1); experiment: Triple SILAC pull-down after UNC0638 treatment of 293T cells, DMSO/UNC0638 ratio of protein captured by 3×MBT; type: cell-based; parameters: endogenous in cells; host or cells: HEK 293T; settings: for Relative to UNC0638 UNC Heavy / Relative to UNC0638 UNC Light: SILAC ratio DMSO/UNC0638 of protein pulled down with 3xMBT; for Relative to UNC0638 UNC Heavy: UNC0638 in heavy SILAC media; for Relative to UNC0638 UNC Light: UNC0638 in light SILAC media; for Relative to UNC0638 Average: average of UNC Light and UNC Heavy experiments;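 on all read-outs here: mass spectrometry (Q-Exactive) SILAC quantitation, DMSO/UNC0638 ratio computed after subtracting 3×MBTD355N mutant pull-down background, only proteins with at least twofold 3×MBT over mutant signal considered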
# T1 sequence (Q96KQ7 2-1210 limits assumed): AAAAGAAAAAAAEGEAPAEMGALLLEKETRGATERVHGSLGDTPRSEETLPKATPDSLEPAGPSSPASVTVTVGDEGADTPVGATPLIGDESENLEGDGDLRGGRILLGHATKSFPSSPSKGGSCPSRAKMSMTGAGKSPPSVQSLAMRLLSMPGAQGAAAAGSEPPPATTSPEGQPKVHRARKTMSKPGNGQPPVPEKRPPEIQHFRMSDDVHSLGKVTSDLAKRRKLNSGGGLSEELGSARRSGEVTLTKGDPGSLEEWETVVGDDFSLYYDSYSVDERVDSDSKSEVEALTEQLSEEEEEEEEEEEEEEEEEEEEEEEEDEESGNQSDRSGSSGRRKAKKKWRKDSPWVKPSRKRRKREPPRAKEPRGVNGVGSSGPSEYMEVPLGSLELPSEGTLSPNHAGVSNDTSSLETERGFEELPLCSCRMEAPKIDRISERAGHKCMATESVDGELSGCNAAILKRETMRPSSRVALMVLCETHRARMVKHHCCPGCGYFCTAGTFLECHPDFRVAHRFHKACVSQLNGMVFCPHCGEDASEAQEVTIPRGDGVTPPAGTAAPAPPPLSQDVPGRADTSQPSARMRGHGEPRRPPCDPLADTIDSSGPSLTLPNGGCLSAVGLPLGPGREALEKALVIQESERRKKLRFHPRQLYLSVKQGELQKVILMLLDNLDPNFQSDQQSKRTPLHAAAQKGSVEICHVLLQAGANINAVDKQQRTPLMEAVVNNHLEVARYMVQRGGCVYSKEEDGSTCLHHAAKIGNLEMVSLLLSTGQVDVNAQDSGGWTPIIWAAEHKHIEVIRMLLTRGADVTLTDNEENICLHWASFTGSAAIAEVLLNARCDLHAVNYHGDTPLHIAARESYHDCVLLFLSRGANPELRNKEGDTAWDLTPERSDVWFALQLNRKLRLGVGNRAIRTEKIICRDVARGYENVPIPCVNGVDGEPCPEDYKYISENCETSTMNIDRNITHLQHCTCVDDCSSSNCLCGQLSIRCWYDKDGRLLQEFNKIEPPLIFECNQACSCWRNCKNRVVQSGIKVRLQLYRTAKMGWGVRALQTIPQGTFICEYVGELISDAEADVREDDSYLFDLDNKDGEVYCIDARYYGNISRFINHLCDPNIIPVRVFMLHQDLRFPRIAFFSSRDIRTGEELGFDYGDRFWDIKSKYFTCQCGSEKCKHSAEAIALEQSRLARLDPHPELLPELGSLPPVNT
# T1 sequence (Q9H9B1 2-1298 limits assumed): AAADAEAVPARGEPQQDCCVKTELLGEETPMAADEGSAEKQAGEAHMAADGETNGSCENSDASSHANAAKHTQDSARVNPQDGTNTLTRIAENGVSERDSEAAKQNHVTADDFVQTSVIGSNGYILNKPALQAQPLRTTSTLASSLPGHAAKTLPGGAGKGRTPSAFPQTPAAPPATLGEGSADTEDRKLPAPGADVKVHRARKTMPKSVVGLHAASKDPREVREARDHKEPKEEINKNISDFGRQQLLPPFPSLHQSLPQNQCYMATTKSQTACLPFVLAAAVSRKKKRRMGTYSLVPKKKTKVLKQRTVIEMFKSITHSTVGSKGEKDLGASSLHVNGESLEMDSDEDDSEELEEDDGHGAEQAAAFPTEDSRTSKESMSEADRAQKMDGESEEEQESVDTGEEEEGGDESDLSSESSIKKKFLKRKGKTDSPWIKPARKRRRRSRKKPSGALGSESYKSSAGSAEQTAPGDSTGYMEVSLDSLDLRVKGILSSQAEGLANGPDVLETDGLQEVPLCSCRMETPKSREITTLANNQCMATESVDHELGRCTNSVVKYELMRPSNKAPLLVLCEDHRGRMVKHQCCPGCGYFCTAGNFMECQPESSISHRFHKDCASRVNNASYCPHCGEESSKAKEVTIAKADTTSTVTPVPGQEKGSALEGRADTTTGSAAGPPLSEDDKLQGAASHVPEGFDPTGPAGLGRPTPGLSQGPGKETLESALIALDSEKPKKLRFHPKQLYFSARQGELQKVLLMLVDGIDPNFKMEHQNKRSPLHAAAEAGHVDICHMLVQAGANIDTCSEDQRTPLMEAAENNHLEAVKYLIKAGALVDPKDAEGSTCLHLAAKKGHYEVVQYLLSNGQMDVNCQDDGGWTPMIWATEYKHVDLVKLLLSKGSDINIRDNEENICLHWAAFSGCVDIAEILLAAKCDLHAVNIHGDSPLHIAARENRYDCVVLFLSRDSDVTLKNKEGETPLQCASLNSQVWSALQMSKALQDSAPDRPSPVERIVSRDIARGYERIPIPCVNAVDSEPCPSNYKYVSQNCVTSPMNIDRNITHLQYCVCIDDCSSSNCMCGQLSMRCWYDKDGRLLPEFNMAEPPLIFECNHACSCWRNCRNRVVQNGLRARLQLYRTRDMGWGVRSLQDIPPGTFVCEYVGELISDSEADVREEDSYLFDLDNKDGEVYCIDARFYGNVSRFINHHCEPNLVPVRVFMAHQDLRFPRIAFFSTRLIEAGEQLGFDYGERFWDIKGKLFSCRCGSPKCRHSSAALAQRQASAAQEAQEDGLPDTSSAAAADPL
# [2] = system: 3×MBT domain of L3MBTL1; experiment: Triple SILAC pull-down, 3xMBT/3xMBTD355N ratio (cytoplasmic, nuclear and chromatin fractions of 293T cells); type: binding, human; settings: SILAC ratio, pull-down 3xMBT vs 3xMBTD355N; for 3xMBT/D355N UNC Heavy: experiment with UNC0638 in heavy SILAC media; for 3xMBT/D355N UNC Light: experiment with UNC0638 in light SILAC media;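 on all read-outs here: proteins quantified with MaxQuant, requiring at least two unique peptides and quantification in both label directions, normalized to the mean of proteins from a digested loading control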
Molecule,Relative to UNC0638 UNC Heavy [1] [log base 2],Relative to UNC0638 UNC Light [1] [log base 2],Relative to UNC0638 Average [1] [log base 2],3xMBT/D355N UNC Heavy [2] [log base 2],3xMBT/D355N UNC Light [2] [log base 2]
"TXN (protein, UniProt P10599 2-105, looked up) Thioredoxin: VKQIESKTAFQEALDAAGDKLVVVDFSATWCGPCKMIKPFFHSLSEKYSNVIFLEVDVDDCQDVASECEVKCMPTFQFFKKGQKVGEFSGANKEKLEATINELV",0.14,0.38,0.26,1.75,1.93
"POLDIP3 (protein, UniProt Q9BY77 2-421, looked up) Polymerase delta-interacting …: ADISLDELIRKRGAAAKGRLNARPGVGGVRSRVGIQQGLLSQSTRTATFQQRFDARQKIGLSDARLKLGVKDAREKLLQKDARFRIKGKVQDAREMLNSRKQQTTVPQKPRQVADAREKISLKRSSPAAFINPPIGTVTPALKLTKTIQVPQQKAMAPLHPHPAGMRINVVNNHQAKQNLYDLDEDDDGIASVPTKQMKFAASGGFLHHMAGLSSSKLSMSKALPLTKVVQNDAYTAPALPSSIRTKALTNMSRTLVNKEEPPKELPAAEPVLSPLEGTKMTVNNLHPRVTEEDIVELFCVCGALKRARLVHPGVAEVVFVKKDDAITAYKKYNNRCLDGQPMKCNLHMNGNVITSDQPILLRLSDSPSMKKESELPRRVNSASSSNPPAEVDPDTILKALFKSSGASVTTQPTEFKIKL",0.39,0.14,0.26,2.51,2.76
"DNAJC2 (protein, UniProt Q99543 1-621, looked up) DnaJ homolog subfamily C …: MLLLPSAADGRGTAITHALTSASTLCQVEPVGRWFEAFVKRRNRNASASFQELEDKKELSEESEDEELQLEEFPMLKTLDPKDWKNQDHYAVLGLGHVRYKATQRQIKAAHKAMVLKHHPDKRKAAGEPIKEGDNDYFTCITKAYEMLSDPVKRRAFNSVDPTFDNSVPSKSEAKDNFFEVFTPVFERNSRWSNKKNVPKLGDMNSSFEDVDIFYSFWYNFDSWREFSYLDEEEKEKAECRDERRWIEKQNRATRAQRKKEEMNRIRTLVDNAYSCDPRIKKFKEEEKAKKEAEKKAKAEAKRKEQEAKEKQRQAELEAARLAKEKEEEEVRQQALLAKKEKDIQKKAIKKERQKLRNSCKTWNHFSDNEAERVKMMEEVEKLCDRLELASLQCLNETLTSCTKEVGKAALEKQIEEINEQIRKEKEEAEARMRQASKNTEKSTGGGGNGSKNWSEDDLQLLIKAVNLFPAGTNSRWEVIANYMNIHSSSGVKRTAKDVIGKAKSLQKLDPHQKDDINKKAFDKFKKEHGVVPQADNATPSERFEGPYTDFTPWTTEEQKLLEQALKTYPVNTPERWEKIAEAVPGRTKKDCMKRYKELVEMVKAKKAAQEQVLNASRAKK",0.28,0.33,0.30,2.18,3.04
"MATR3 (protein, UniProt P43243 2-847, looked up) Matrin-3: SKSFQQSSLSRDSQGHGRDLSAAGIGLLAAATQSLSMPASLGRMNQGTARLASLMNLGMSSSLNQQGAHSALSSASTSSHNLQSIFNIGSRGPLPLSSQHRGDADQASNILASFGLSARDLDELSRYPEDKITPENLPQILLQLKRRRTEEGPTLSYGRDGRSATREPPYRVPRDDWEEKRHFRRDSFDDRGPSLNPVLDYDHGSRSQESGYYDRMDYEDDRLRDGERCRDDSFFGETSHNYHKFDSEYERMGRGPGPLQERSLFEKKRGAPPSSNIEDFHGLLPKGYPHLCSICDLPVHSNKEWSQHINGASHSRRCQLLLEIYPEWNPDNDTGHTMGDPFMLQQSTNPAPGILGPPPPSFHLGGPAVGPRGNLGAGNGNLQGPRHMQKGRVETSRVVHIMDFQRGKNLRYQLLQLVEPFGVISNHLILNKINEAFIEMATTEDAQAAVDYYTTTPALVFGKPVRVHLSQKYKRIKKPEGKPDQKFDQKQELGRVIHLSNLPHSGYSDSAVLKLAEPYGKIKNYILMRMKSQAFIEMETREDAMAMVDHCLKKALWFQGRCVKVDLSEKYKKLVLRIPNRGIDLLKKDKSRKRSYSPDGKESPSDKKSKTDGSQKTESSTEGKEQEEKSGEDGEKDTKDDQTEQEPNMLLESEDELLVDEEEAAALLESGSSVGDETDLANLGDVASDGKKEPSDKAVKKDGSASAAAKKKLKKVDKIEELDQENEAALENGIKNEENTEPGAESSENADDPNKDTSENADGQSDENKDDYTIPDEYRIGPYQPNVPVGIDYVIPKTGFYCKLCSLFYTNEEVAKNTHCSSLPHYQKLKKFLNKLAEERRQKKET",0.37,0.14,0.26,1.72,1.77
